Results as given in patent publication US20240228562A1, “NOVEL LIPOCALIN MUTEINS SPECIFIC FOR CONNECTIVE TISSUE GROWTH FACTOR (CTGF)” (PIERIS PHARMACEUTICALS GMBH, priority 2021, published 2024).

Assays:
CTGF = biological target: T1, CTGF (Homo sapiens, UniProt P29279); experiment: Specificity ELISA (CCN proteins), human CTGF; type: binding; conditions: coated 1 μg/ml, muteins from 1000 nM
T1 sequence (P29279 27-349): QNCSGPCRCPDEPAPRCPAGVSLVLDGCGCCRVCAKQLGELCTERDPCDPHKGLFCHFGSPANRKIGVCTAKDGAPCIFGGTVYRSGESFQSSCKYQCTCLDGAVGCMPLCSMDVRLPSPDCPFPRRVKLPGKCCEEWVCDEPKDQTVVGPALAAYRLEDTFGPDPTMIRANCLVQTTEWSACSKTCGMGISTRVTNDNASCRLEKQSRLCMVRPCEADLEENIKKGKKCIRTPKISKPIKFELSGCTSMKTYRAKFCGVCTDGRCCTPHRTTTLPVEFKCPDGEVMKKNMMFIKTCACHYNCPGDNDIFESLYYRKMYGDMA
Description: (§1) Binding of muteins to closely related proteins of CTGF was tested by an ELISA assay. In detail, a 384-well plate suitable for fluorescence measurements (Greiner FLUOTRAC™ 600, black flat bottom, high-binding) was coated with 20 μl of human CTGF or the other members of the CCN protein family at a concentration of 1 μg/ml in PBS over night at 4° C. After washing with PBS with 0.05% Tween 20, wells were blocked with 100 μl blocking buffer containing 0.1% Tween 20 and 2% BSA (PBS-T/BSA) for 1 h at room temperature. 20 μl of serially diluted muteins starting at 1000 nM were incubated in PBS-T/BSA for 1 h at room temperature (RT).
(§2) The residual supernatants were discarded and 20 μl HRP-labeled anti-NGAL or anti-Strep-Tag antibody was added at a predetermined optimal concentration in PBS-T/BSA and incubated for 1 h at RT. After washing, 20 μl fluorogenic HRP substrate (QuantaBlu, Thermo) was added to each well, and the reaction was allowed to proceed for 2 to 60 minutes. The fluorescence intensity of every well on the plate was read using a fluorescence microplate reader (Tecan). When the signal for human CTGF approached saturation, the cross reactivity to the other proteins was assessed.

huWISP-1 = biological target: T2, huWISP-1 (Homo sapiens, UniProt O95388); experiment: Specificity ELISA (CCN proteins), huWISP-1; type: binding; conditions: coated 1 μg/ml; assessed when human CTGF signal approached saturation
T2 sequence (O95388 23-367): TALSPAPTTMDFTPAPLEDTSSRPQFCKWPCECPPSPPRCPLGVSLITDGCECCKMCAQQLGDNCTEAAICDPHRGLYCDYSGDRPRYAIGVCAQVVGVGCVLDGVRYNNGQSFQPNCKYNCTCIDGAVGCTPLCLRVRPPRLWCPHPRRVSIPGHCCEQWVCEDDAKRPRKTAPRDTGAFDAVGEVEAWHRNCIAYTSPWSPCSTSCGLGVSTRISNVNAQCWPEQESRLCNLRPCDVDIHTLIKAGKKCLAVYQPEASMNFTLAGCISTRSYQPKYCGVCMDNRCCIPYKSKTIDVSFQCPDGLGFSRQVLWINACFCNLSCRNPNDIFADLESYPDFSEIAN
Description: as §1, §2

huCYR61 = biological target: T3, huCYR61 (Homo sapiens, UniProt O00622); experiment: Specificity ELISA (CCN proteins), huCYR61; type: binding; conditions: coated 1 μg/ml; assessed when human CTGF signal approached saturation
T3 sequence (O00622 25-381): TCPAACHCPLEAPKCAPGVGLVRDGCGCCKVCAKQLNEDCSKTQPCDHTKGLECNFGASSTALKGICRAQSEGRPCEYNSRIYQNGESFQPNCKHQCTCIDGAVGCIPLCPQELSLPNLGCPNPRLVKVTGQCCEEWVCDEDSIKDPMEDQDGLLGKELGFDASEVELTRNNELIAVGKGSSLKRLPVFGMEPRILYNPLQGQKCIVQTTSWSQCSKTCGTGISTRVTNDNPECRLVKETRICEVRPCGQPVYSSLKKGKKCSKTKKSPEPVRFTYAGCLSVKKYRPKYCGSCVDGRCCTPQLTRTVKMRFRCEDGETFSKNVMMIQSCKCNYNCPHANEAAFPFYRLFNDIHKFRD
Description: as §1, §2

huWISP-3 = biological target: T4, huWISP-3 (Homo sapiens, UniProt O95389); experiment: Specificity ELISA (CCN proteins), huWISP-3; type: binding; conditions: coated 1 μg/ml; assessed when human CTGF signal approached saturation
T4 sequence (O95389 24-354): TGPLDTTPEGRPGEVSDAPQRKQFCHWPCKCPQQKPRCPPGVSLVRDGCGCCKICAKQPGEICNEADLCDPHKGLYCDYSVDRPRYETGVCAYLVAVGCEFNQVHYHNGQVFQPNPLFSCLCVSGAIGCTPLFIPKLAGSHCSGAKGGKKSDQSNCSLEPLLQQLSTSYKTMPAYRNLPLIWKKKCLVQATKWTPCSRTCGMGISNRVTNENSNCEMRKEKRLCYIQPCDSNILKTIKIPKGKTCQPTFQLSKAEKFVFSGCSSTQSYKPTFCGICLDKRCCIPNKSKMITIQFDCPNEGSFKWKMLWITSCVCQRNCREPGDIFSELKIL
Description: as §1, §2

huNOV = biological target: T5, huNOV (Homo sapiens, UniProt P48745); experiment: Specificity ELISA (CCN proteins), huNOV; type: binding; conditions: coated 1 μg/ml; assessed when human CTGF signal approached saturation
T5 sequence (P48745 32-357): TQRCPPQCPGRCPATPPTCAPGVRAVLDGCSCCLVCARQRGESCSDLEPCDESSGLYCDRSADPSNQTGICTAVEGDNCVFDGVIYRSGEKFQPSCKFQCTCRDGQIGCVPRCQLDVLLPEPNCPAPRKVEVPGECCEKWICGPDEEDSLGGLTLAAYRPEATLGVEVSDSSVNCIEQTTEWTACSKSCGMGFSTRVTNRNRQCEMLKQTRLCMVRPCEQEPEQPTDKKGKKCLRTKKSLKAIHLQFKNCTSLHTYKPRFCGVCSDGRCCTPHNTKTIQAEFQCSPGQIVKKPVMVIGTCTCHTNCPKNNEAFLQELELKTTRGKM
Description: as §1, §2

[1] = Thermal stability assessment by nanoDSC; type: physicochemical; conditions: 1 mg/mL in PBS, scan 25-100° C. at 1° C./min
Outline: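 CTGF-specific lipocalin muteins at 1 mg/mL in PBS scanned from 25 to 100° C at 1° C/min by capillary nano-DSC. Where several transitions occur, the Tm of the major unfolding event is reported, along with onset temperature. Some muteins were expressed in E. coli, others in CHO cells.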

huWISP-2 = biological target: T6, huWISP-2 (Homo sapiens, UniProt O76076); experiment: Specificity ELISA (CCN proteins), huWISP-2; type: binding; conditions: coated 1 μg/ml; assessed when human CTGF signal approached saturation
T6 sequence (O76076 24-250): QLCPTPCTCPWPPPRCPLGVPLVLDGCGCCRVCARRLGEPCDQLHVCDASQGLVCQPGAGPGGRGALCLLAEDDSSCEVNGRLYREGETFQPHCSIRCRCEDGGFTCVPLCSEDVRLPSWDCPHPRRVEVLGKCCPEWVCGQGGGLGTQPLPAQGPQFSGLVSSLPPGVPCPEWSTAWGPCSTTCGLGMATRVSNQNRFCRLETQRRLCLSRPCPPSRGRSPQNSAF
Description: as §1, §2

ELISA binding to HUMAN CTGF (CTGF): Binding
ELISA binding to huWISP-1 (huWISP-1): No binding
ELISA binding to huCYR61 (huCYR61): No binding
ELISA binding to huWISP-3 (huWISP-3): No binding
ELISA binding to huNOV (huNOV): No binding
ELISA binding to huWISP-2 (huWISP-2): No binding
B1: SEQ ID NO: 76: fusion protein comprising two CTGF-binding lipocalin muteins (protein)
chain: QDSTSDLIPAPPLSKVPLQQNFQDNQFQGKWYVVGLAGNAILREDKQPAKMFATIYELKEDKSYDVTSVRFEAKSCKYTIKTFVPGSQPGEFTAGYIKSAPGQTSTLVRVVSTNYNQHAMVFFKHVTQNREIFVITLYGRTKELTSELKENFIRFSKSLGLPENHIVFPVPIDQCIDGGGGGSGGGGSGGGGSQDSTSDLIPAPPLSKVPLQQNFQDNQFQGKWYVVGWAGNVKLREDKQPLKMSATIYELKEDKSYDVTEVVFEQKKCHYIIKTFVPGSQPGEFTAGDIKSPPGYTSSLVRVVSTNYNQHAMVFFKKVSQNREFFWITLYGRTKELTSELKENFIRFSKSLGLPENHIVFPVPIDQCIDG
modifications: fusion protein
ONSET MELTING [1]: 63 °C
TM ([1]; major transition): 73 °C
